Test results taken from publication PMC6929137, “Thrombin Aptamer-Modified Metal–Organic Framework Nanoparticles: Functional Nanostructures for Sensing Thrombin and the Triggered Controlled Release of Anti-Blood Clotting Drugs”.

Columns and labels:
thrombin = thrombin (UniProt P00734;P00734 328-363;364-622); test: strand-displacement release of rhodamine 6G from gated NMOFs (fluorescence); thrombin 0.25-1 uM; 10 mM KCl, 10 mM MgCl2; competes with anchor strand (1); 10 mM HEPES pH 7.4, 20 mM NaCl, 10 mM KCl, 10 mM MgCl2; 30 min; temperature not stated
[1] = target: vascular endothelial growth factor 165 (VEGF) (human, UniProt P15692-4 27-191); test: strand-displacement release of rhodamine 6G and Apixaban from gated NMOFs (fluorescence); 1 uM protein; background release only; 10 mM HEPES pH 7.4, 20 mM NaCl, 10 mM KCl, 10 mM MgCl2; 30 min; temperature not stated; conditions: protein: commercial; chain copies: 2; label: none on DNA; read-out is released rhodamine 6G or Apixaban fluorescence; 11 bp duplex, 5' overhang 8 nt on aptamer strand
vascular endothelial growth factor 165 (VEGF), sequence (P15692 other isoform, or with tags, fused parts or gaps): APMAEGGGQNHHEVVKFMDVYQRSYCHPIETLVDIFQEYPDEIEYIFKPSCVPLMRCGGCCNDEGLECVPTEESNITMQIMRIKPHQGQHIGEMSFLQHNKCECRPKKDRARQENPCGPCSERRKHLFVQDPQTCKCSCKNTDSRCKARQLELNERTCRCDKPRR

B1: thrombin aptamer (2) hybridized to anchor (1) on UiO-68 NMOFs (mixed)
DNA: GGTTGGTGTGGTTGGTTTT
?: AAAACCAACCA
modifications: strand 2 (anchor): 5'-NH2-(CH2)6, DBCO-modified, clicked to azide-functionalized UiO-68 NMOF
- binding result (thrombin): binds
- binding result [1]: no binding
